The target in assay [1] is T1, MICA on human tumor cells (A-375, A549, HCT-15, MDA-MB-231) (human, UniProt Q29983 24-383).
T1 construct: whole, on cells
T1 sequence (looked up): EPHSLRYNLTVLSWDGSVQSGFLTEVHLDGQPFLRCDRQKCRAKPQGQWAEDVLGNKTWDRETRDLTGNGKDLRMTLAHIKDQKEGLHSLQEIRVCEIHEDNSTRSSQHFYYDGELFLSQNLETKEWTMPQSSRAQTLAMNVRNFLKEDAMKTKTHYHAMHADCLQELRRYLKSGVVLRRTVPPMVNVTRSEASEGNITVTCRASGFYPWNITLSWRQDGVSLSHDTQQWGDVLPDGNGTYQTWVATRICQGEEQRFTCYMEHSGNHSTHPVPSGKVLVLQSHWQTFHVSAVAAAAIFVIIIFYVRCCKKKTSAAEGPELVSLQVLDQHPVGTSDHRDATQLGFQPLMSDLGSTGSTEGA
In words: flow cytometry competition on HCT-15 cells; competitor: Biotin-h5A1002, detected with Alexa-647 streptavidin; % binding ratio of Biotin-h5A1002. On the procedure: HCT-15 cells were diluted to a density of 2×10⁶/mL with PBS and added into a 1.5 ml EP tube in a volume of 100 l/tube. 10 l/tube of goat serum was added into the EP tube, and blocking was conducted at 4° C. for 30 min. […] The tube was incubated at 4° C. for 30 min. A biotin-labeled affinity maturation antibody Biotin-h5A1002 (having a heavy chain sequence as set forth in SEQ ID NO: 13 and a light chain sequence as set forth in SEQ ID NO: 14) was added. The tube was incubated at 4° C. for 30 min. 1 mL of PBS was added into the EP tube, and centrifugation was conducted 4° C. at a rate of 3,500 rpm for 5 min. The supernatant was removed. The EP tube was washed once with the PBS, and the supernatant was removed after centrifugation. The cells were resuspended with PBS in a volume of 100 l/tube. An Alexa-647 labeled Streptavidin secondary antibody (purchased from Biolegend) was added into the tube in a volume of 1 l/tube, and the tube was incubated in the dark at 4° C. for 30 min. The tube was washed twice with PBS, and the supernatant was removed after centrifugation. The cells were resuspended with the PBS in a volume of 200 μl/tube, and detection was conducted by a flow cytometer.
For orientation: A flow cytometer gives signals particle by particle.

Assay [2] addresses T1, MICA on human tumor cells (A-375, A549, …). In words: flow cytometry on A-549 cells, Alexa-647 goat anti-human secondary, % binding ratio. As for the experimental part: (2) Tumor cells were diluted to a density of 2×10⁶/mL with PBS and added into a 1.5 ml EP tube in a volume of 100 l/tube. 10 l/tube of goat serum was added into the EP tube; and blocking was conducted at 4° C. for 30 min. […] The tube was incubated at 4° C. for 30 min. 1 mL of PBS was added into the EP tube, and centrifugation was conducted 4° C. at a rate of 3,500 rpm for 5 min. The supernatant was removed. Then, the EP tube was washed once with the PBS, and the supernatant was removed after centrifugation. The cells were resuspended with PBS in a volume of 100 l/tube. An Alexa-647 labeled goat anti-human secondary antibody (purchased from Jackson lab) was added into the tube in a volume of 1 l/tube, and the tube was incubated in the dark at 4° C. for 30 min. The tube was washed twice with PBS, and the supernatant was removed after centrifugation. The cells were resuspended with the PBS in a volume of 200 l/tube, and detection was conducted by a flow cytometer. The results are as shown in FIG. 17A and FIG. 17B, FIG. 18A and FIG. 18B, FIG. 19A and FIG. 19B, and FIG. 20A and FIG. 20B.

In the next assay the target is T2, MICA002α3-Fc (human).
T2 construct: Produced in the Applicant's laboratory; also called MICA*002-Fc; domain α3 of MICA-002 Fc fusion protein
Briefly: ELISA on coated MICA*002 α3-Fc (1 µg/ml), HRP anti-human Fab secondary, OD450.

In a further assay the target is T3, MICA004α3-Fc (human).
T3 construct: also called MICA*004-Fc; domain α3 of MICA-004 Fc fusion protein
In words: ELISA on coated MICA*004 α3-Fc (1 µg/ml), HRP anti-human Fab secondary, OD450. As for the experimental part:
After the antibodies were added, signal intensity was used for judging the binding characteristics of the antibodies and MICA and MICB.
The fusion proteins (produced in the Applicant's laboratory; an amino acid sequence of MICA002α3-Fc is as set forth in SEQ ID NO: 22; an amino acid sequence of MICA005α3-Fc is as set forth in SEQ ID NO: 24; an amino acid sequence of MICA008α3-Fc is as set forth in SEQ ID NO: 25; an amino acid sequence of MICA004α3-Fc is as set forth in SEQ ID NO: 23; an amino acid sequence of MICB001α3-Fc is as set forth in SEQ ID NO: 26; and an amino acid sequence of MICB005α3-Fc is as set forth in SEQ ID NO: 27) were diluted to a concentration of 1 μg/ml with PBS and then added into a 96-well plate in a volume of 100 μl/well. The plate was placed at 4° C. overnight. The PBS in the 96-well plate was removed by sucking. After the plate was washed with PBST (that is, PBS having a pH value of 7.2 included 0.1 volume % of Tween 20) for 6 times, PBS containing 10% of BSA was added in a volume of 200 μl/well. The plate was incubated at 37° C. for 2 hours for blocking. The blocking solution was removed. […]
A general note: In an ELISA, binding on a coated surface is turned into a signal by an enzyme label.

Consider one molecule from patent US20240368285A1 (HEFEI TG IMMUNOPHARMA, published 2024).

As usually defined, the EC50 (read off the curve) is the concentration that produces a half-maximal response.

T3 sequence (chain, as listed by the source limits assumed): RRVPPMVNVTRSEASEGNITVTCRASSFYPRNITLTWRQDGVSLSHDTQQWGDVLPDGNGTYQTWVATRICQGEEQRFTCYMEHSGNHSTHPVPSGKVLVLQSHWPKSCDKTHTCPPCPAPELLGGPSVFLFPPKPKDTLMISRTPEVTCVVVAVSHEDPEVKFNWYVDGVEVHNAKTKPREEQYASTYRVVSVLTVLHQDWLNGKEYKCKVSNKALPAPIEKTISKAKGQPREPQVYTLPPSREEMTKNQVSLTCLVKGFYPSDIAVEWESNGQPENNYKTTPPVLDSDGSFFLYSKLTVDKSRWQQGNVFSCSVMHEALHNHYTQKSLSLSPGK
T2 sequence (chain, as listed by the source limits assumed): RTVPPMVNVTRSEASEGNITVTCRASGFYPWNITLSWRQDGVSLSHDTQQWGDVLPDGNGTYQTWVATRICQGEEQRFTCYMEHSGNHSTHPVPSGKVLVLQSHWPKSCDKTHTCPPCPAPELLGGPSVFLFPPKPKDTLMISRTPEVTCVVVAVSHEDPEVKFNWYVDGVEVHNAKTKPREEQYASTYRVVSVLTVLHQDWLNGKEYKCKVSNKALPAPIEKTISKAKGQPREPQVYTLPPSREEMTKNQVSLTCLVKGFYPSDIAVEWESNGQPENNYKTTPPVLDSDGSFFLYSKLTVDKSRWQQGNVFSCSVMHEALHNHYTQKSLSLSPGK

B1: affinity maturation antibody h5A1002 (antibody, V domains shown)
VH: QVQLQESGPGLVKPSETLSLTCTVSGFSLTTYGGHWIRQPPGKGLEWIGMIWTDGWTDYNAAFISRVTISVDTSKNQFSLKLSSVTAADTAVYYCARKGHGYYYAMDYWGQGTLVTVSS
VL: EIVLTQSPGTLSLSPGERATLSCTASSSVSSSYLHWYQQKPGQAPRLLIYSTSNLISGIPDRFSGSGSGTDFTLTISRLEPEDFAVYYCHQYHRSPFTFGQGTKLEIKR
notes: Human IgG1, kappa; also called h5A1002-hIgG1
For B1, the “IC50 (read off the curve)” value in assay [1] is roughly 1 µg/mL. The “EC50 (read off the curve)” value is roughly 0.4 µg/mL in assay [2], roughly 0.04 µg/mL with MICA002α3-Fc and roughly 70 ng/mL with MICA004α3-Fc.
